Substitutions are numbered along the chain they refer to. Names may count otherwise.
B1: CyPPO10 F360V: CyPPO10 (SEQ ID NO: 2) PPO variant (protein)
chain: MIEVDVAIVGGGLSGLSVAWRLQRSAPHYSGVLLEASDRLGGNITTQAAEGFVWELGPNSFAPTPALLQLIAEVGLHSELIRGDRHLPRYIYWRGELYPLEPTRPLALATSNLLSPWGKVRAALGALGFVPPYLGSGDESVDSFFRRHLGQEVAERLVAPFVSGVYAGDPQQLSAAAAFRRIAQLEKLGGSLIAGALRLRRQQPPQPKPPAQVQMRPGELGSFREGLAALPRAIAQQLKAPLHLQTPVEAITPEPKGGYLLRSGEQTWHARSVVLATPAYQTAELVAPFQPAIARALATIPYPTVACVVLAYPAGLGRSVRPGFGVLVPRGQGIRTLGTIWSSCLFPQRTPAGWQVFTSVIGGATDPDLASLREEAIVEQVQQDLTRLLDLPAAKARLLGMKVWRRAIPQYIVGYPQQWQQVTHALTQTPGLFLCSNYAEGVALGDRVEHGNRTAAAVAAYLAGGQS
modifications: Synthetic CyPPO10
B2: CyPPO10 S60T + V165S + F360M: CyPPO10 (SEQ ID NO: 2) PPO variant (protein)
chain: B1 chain with S60T, V165S, V360M
modifications: Synthetic CyPPO10
B3: CyPPO10 R89L + F360I: CyPPO10 (SEQ ID NO: 2) PPO variant (protein)
chain: B1 chain with R89L, V360I
modifications: Synthetic CyPPO10
B4: CyPPO10 R89A + F360L: CyPPO10 (SEQ ID NO: 2) PPO variant (protein)
chain: B1 chain with R89A, V360L
modifications: Synthetic CyPPO10
B5: CyPPO10 V165S + F360V: CyPPO10 (SEQ ID NO: 2) PPO variant (protein)
chain: B1 chain with V165S
modifications: Synthetic CyPPO10
B6: CyPPO10 V165S + F360M: CyPPO10 (SEQ ID NO: 2) PPO variant (protein)
chain: B1 chain with V165S, V360M
modifications: Synthetic CyPPO10
B7: CyPPO10 V305M + F360M: CyPPO10 (SEQ ID NO: 2) PPO variant (protein)
chain: B1 chain with V305M, V360M
modifications: Synthetic CyPPO10
B8: CyPPO10 A167C + F360M: CyPPO10 (SEQ ID NO: 2) PPO variant (protein)
chain: B1 chain with A167C, V360M
modifications: Synthetic CyPPO10
B9: CyPPO10 R89A + V305T + F360M: CyPPO10 (SEQ ID NO: 2) PPO variant (protein)
chain: B1 chain with R89A, V305T, V360M
modifications: Synthetic CyPPO10
B10: CyPPO10 A167L + F360I: CyPPO10 (SEQ ID NO: 2) PPO variant (protein)
chain: B1 chain with A167L, V360I
modifications: Synthetic CyPPO10
B11: CyPPO10 V165C + A167I + F360M: CyPPO10 (SEQ ID NO: 2) PPO variant (protein)
chain: B1 chain with V165C, A167I, V360M
modifications: Synthetic CyPPO10
B12: CyPPO10 V305L + F360M: CyPPO10 (SEQ ID NO: 2) PPO variant (protein)
chain: B1 chain with V305L, V360M
modifications: Synthetic CyPPO10
B13: CyPPO10 R89A + F360I: CyPPO10 (SEQ ID NO: 2) PPO variant (protein)
chain: B1 chain with R89A, V360I
modifications: Synthetic CyPPO10
B14: CyPPO10 V165C + F360M: CyPPO10 (SEQ ID NO: 2) PPO variant (protein)
chain: B1 chain with V165C, V360M
modifications: Synthetic CyPPO10
B15: CyPPO10 V165C + A167L + F360M: CyPPO10 (SEQ ID NO: 2) PPO variant (protein)
chain: B1 chain with V165C, A167L, V360M
modifications: Synthetic CyPPO10
B16: CyPPO10 V165S + F360I: CyPPO10 (SEQ ID NO: 2) PPO variant (protein)
chain: B1 chain with V165S, V360I
modifications: Synthetic CyPPO10
B17: CyPPO10 A167I + F360M: CyPPO10 (SEQ ID NO: 2) PPO variant (protein)
chain: B1 chain with A167I, V360M
modifications: Synthetic CyPPO10
B18: CyPPO10 V305T + F360I: CyPPO10 (SEQ ID NO: 2) PPO variant (protein)
chain: B1 chain with V305T, V360I
modifications: Synthetic CyPPO10
B19: CyPPO10 N59T + F360V: CyPPO10 (SEQ ID NO: 2) PPO variant (protein)
chain: B1 chain with N59T
modifications: Synthetic CyPPO10
B20: CyPPO10 S60T + I340T + F360I: CyPPO10 (SEQ ID NO: 2) PPO variant (protein)
chain: B1 chain with S60T, I340T, V360I
modifications: Synthetic CyPPO10
B21: CyPPO10 R89V + F360I: CyPPO10 (SEQ ID NO: 2) PPO variant (protein)
chain: B1 chain with R89V, V360I
modifications: Synthetic CyPPO10
B22: CyPPO10 V165S + F360L: CyPPO10 (SEQ ID NO: 2) PPO variant (protein)
chain: B1 chain with V165S, V360L
modifications: Synthetic CyPPO10
B23: CyPPO10 V165C + A167C + F360M: CyPPO10 (SEQ ID NO: 2) PPO variant (protein)
chain: B1 chain with V165C, A167C, V360M
modifications: Synthetic CyPPO10
B24: CyPPO10 S60T + V165S + F360I: CyPPO10 (SEQ ID NO: 2) PPO variant (protein)
chain: B1 chain with S60T, V165S, V360I
modifications: Synthetic CyPPO10
B25: CyPPO10 R89A + F360M: CyPPO10 (SEQ ID NO: 2) PPO variant (protein)
chain: B1 chain with R89A, V360M
modifications: Synthetic CyPPO10
B26: CyPPO10 R89A + A167L + F360M: CyPPO10 (SEQ ID NO: 2) PPO variant (protein)
chain: B1 chain with R89A, A167L, V360M
modifications: Synthetic CyPPO10

System: CyPPO10
Assay: PPO enzyme activity and IC50 by herbicides, CyPPO10 wild type and variants (MBP-PPO fusion)
Type: biochemical, Thermosynechococcus elongatus BP-1
Conditions: PPO enzyme activity of CyPPO10 protein, wild type = 100
Method: The enzyme activities of PPO protein and PPO protein variants were examined, and inhibition assay by PPO-inhibiting herbicides was conducted. It was confirmed that the PPO protein has low water-solubility, but in case of being expressed as a fusion protein with MBP (maltose binding protein) (MBP-PPO), the PPO protein is able to be stably expressed as water-soluble form. Therefore, the wild type and variant proteins which were expressed in the form of fusion protein with MBP were used in the present test (refer to FIG. 4).
In order to express wild type genes and mutant genes of CyPPO10 and CyPPO13 (refer to Example 1 and Example 4), those genes were introduced to pMAL-c2X vector (refer to FIG. 5) respectively, and then cloned to BL21 (DE3) E. coli (CodonPlus).
The enzyme activity of the purified wild type protein and variant proteins of CyPPO10 and CyPPO13 was measured by the following process.
At first, a substrate of PPO protein, Protoporphyrinogen IX was synthesized. This process was performed in the space where nitrogen gas is streamed. 6 mg of protoporphyrin IX was dissolved in 20% (v/v) EtOH 20 ml, and stirred under dark condition for 30 minutes. The obtained protoporphyrinogen IX solution was put into a 15 ml screw tube in an amount of 800 and flushed with nitrogen gas for 5 minutes. To this, 1 g of sodium amalgam was added and vigorous shaking was performed for 2 minutes. The lid was open to exhaust hydrogen gas in the tube. Thereafter, the lid was closed and incubated for 3 minutes. The […] was filtered using syringe and cellulose membrane filter. To 600 μl of the obtained […], 2M MOPS [3-(N-morpholino)propanesulfonic acid] was added in an amount of approximately 300 thereby adjusting pH to 8.0. To determine the enzyme activity of PPO protein, a reaction mixture was prepared with the following composition (based on 10 ml): 50 mM Tris-Cl (pH 8.0); 50 mM NaCl; 0.04% (v/v) Tween 20; 40 mM glucose (0.072 g); 5 units glucose oxidase (16.6 mg); and 10 units catalase (1 μl).
Two hundred microliters (200 μl) of reaction mixture containing a purified PPO protein were placed in 96 well plates, and preincubated for 30 min at room temperature to reduce the oxygen concentration by the reaction of glucose oxidase-catalase. The mineral oil was layered and then the reaction was initiated by adding the substrate, […], to a final concentration of 50 μM. The reaction proceeded at room temperature for 30 min and the fluorescence of protoporphyrin IX was measured using Microplate reader (Sense, Hidex) (excitation: 405 nm; emission: 633 nm). To calculate the PPO enzyme activity, protoporphyrinogen IX solution was kept open in the air to oxidize the solution (overnight). To this, 2.7N HCl was added, and the absorbance at 408 nm was measured. A standard curve was generated using standard protoporphyrin IX, and the PPO activity was measured by calibration of protoporphyrin IX using the standard curve of protoporphyrin IX.
The final concentration of each herbicide was as follows: […]

First: B1
Second: B2
The “Activity (%)” value of the first is higher: 56% for the first, 17% for the second.

Going from B3 to B4, the “Activity (%)” value falls from 51% to 30%.

First: B5
Second: B6
The “Activity (%)” value of the first is lower: 52% for the first, 78% for the second.

First: B7
Second: B8
The “Activity (%)” value of the first is lower: 87% for the first, 90% for the second.

First: B9
Second: B10
The “Activity (%)” value of the first is lower: 5% for the first, 32% for the second.

Going from B11 to B12, the “Activity (%)” value rises from 75% to 82%.

Compared with B13, B14 is higher in “Activity (%)” value: 38% for the first, 93% for the second.

Compared with B15, B16 is lower in “Activity (%)” value: 83% for the first, 63% for the second.

Going from B17 to B18, the “Activity (%)” value falls from 85% to 10%.

Compared with B19, B20 is lower in “Activity (%)” value: 62% for the first, 5% for the second.

Compared with B21, B22 is higher in “Activity (%)” value: 57% for the first, 59% for the second.

Going from B23 to B24, the “Activity (%)” value falls from 91% to 12%.

Going from B25 to B26, the “Activity (%)” value falls from 67% to 7%.

— US11466286B2, “Methods and compositions for conferring and/or enhancing herbicide tolerance using protoporphyrinogen oxidase or variant thereof” (FarmHannong Co., Ltd., priority 2016, dated 2022)
